This is an account of results in PMC7173960 (eLife, 2020).

B1: SBV Gc head domain (SBV-Gc_(head)) (domain or fragment)
chain: INCKNIQSTQLTIEHLSKCMAFYQNKTSSPVVINEIISDASVDEQELIKSLNLNCNVIDRFISESSVIETQVYYEYIKSQLCPLQVHDIFTINSASNIQWKALARSFTLGVCNTNPHKHICRCLESMQMCTSTKTDHAREMSIYYDGHPDRFEHDMKIILNIMRYIVPGLGRVLLDQIKQTKDYQALRHIQGKLSPKSQSNLQLKGFLEFVDFILGANVTIEKTPQTLTTLSLI
notes: not shown: Twin Strep-tag, C-terminal, kept
B2: RV126 (VHH)
VHH: QVQLQESGGGLVQPGGSLRLSCAASGSIFRFNAMGWYRQAPGNQRDQQRELVAVATNHGTTNYADSVKGRFTISRDNAKNTVALQMNSLKPEDTAVYYCNIRNRLTGDDYWGQGTQVTVSS
B3: RV141 (VHH)
VHH: QVQLQQSGGGLVQAGGSLRLSCAASGRTFSRYRMGWFRQAPGKEREFVAAINWSGGRTYYVDSMEGRFTISRDNAKNTVYLQMNSLKPEDTAVYRCAAQDRLTGNVYYHEEYDYWGQGTQVTVSS
B4: RV108 (VHH)
VHH: QVQLQESGGGLVQAGGSLRLSCVASGRTPSRFFMAWFRQSPGKEREFVARINWGGGNTYYADSVKSRFTISMNNARNTAYLQMNNLKPEDTAVYICAANSDLETNVASLYDYWGQGTQVTVSS
B5: RV152 (VHH)
VHH: QVQLQESGGGLVQAGGSLRLSCAASGRTASSYATGWFRQAPGKEREFVAAIMWSASITHYTDSVKGRFTISRDNAKNTVYLQMNSLKPEDTAVYYCAASKGIIATQAISAYDYWGQGTQVTVSS
B6: RV139 (VHH)
VHH: QVQLQESGGGLVQAGGSLRLSCAASGPTFSRVTTMGWFRQAPGKDREFVGAISWSDGITYYADSVKGRFTISRDNAKNTMFLQMNSLKPEDTAVYYCGAKIHGGSWFPNYEQYEGMYDFWGQGTQVTVSS
B7: RV145 (VHH)
VHH: QVQLQESGGGLVQAGASLRLSCAASGLTFSSYRMGWFRQAPGKEREFVSAINWSGGNTYYADSLKGRFTISRDNAKNTVYLQMNSLKPEDTAVYYCASQWRLSGVDPLRAHEYEYWGQGTQVTVSS
B8: RV110 (VHH)
VHH: QVQLQESGGGLVQAGGSLRLSCVASGRSFSTSAMGWFRQTPGKEREFVAAISTSGRPTYYADSVKGRGTISRDNAKATVYLEMNSLKPEDTAAYYCAAGMRPRLTGDYYSTDEYDYWGQGTQVTVSS
B9: RV134 (VHH)
VHH: QVQLQESGGGLVQAGGSLRLSCAASGLTFAFYTVGWFRQAPGKEREFVGGIIWAGGRTSYADSVKGRFTISRDNAENTVYLQMNSLRPEDTAVYYCAAKNRLTSTNEYDFWGQGTQVTVSS
B10: RV124 (VHH)
VHH: QVQLQQSGGGLVQPGGSLRLSCAASGIISSIYAMGWYRQAPGKQRELVATAGRVTNYADSVKDRFTISRDNAKNTVYLQMNSLKPEDTAVYYCNARNRLTDDNYWGQGTQVTVSS
B11: RV106 (VHH)
VHH: QVQLQESGGGLVQAGGSLRLSCAASGLTFSSYAMGWFRQAPGKEREFVASSSRIEGIIDYADSVKGRFTISRDNAKNTVYLQMDSLKPEDTAVYFCAATRAIIAGRSRSAYDYWGQGTQVTVSS
B12: SB12 (VHH)
VHH: QVQLQQSGGGLVQAGGSLRLSCAASGRKISSLTIYGMGWFRQAPGKEREFVAAISQAGGTTSYADSIKDRFTISRDNDKNTAYLQMNNLKPEDTAVYYCAADFLPRIISRRYSDYEYWGQGAQVTVSS
notes: source: S. cerevisiae, purified from the culture supernatant (IMAC, Ni-NTA)
B13: SB13 (VHH)
VHH: QVQLQESGGGLVQAGDSLRLSCAVSGRTVSSNVMAWFRQAPGKEREAVAFIDSGSGGWPYYSDSVKGRFTISRDNAKNMVYLQMDSLIPEDTAVYYCAADSAVYSRSSRWWLRASSYSYWGQGTQVTVSS
notes: as for B12
B14: SB9 (VHH)
VHH: QVQLQESGGGLVQPGGSLRLSCAASGFTFGSYDMSWVRQAPGKGPEWVSGINSGAISTYYADSVKGRFTISRDNAKNTLYLQMNSLKPEDTAVYYCAKADLDKMMEMVAGRPFLPHDPNFGSWGQGTQVTVSS
notes: as for B12
B15: SB11 (VHH)
VHH: QVQLQESGGGMVQAGGSLRLSCAASGRTFRGYGMGWWRQAPGQERDIVAWIRWSDSTGFYIDSVKGRFTISSDNAKNTVYLQMNSLKVEDTAVYYCAAARGTTGWGAVEDRYWGQGAQVTVSS
notes: as for B12
B16: SB14 (VHH)
VHH: QVQLQQSGGGLVQAGGSLRLSCTASGRTFSTYVMGWFRQAPGKEREFVGAISWSGGSTVYADSVKGRFTISRDDAKNTVYLQMNSLKPEDTAVYYCAADDSSWYLVLDAYEYDYWGQGTQVTVSS
notes: as for B12
B17: SB10 (VHH)
VHH: QVQLQESGGGLVQAGDSLRVSCAASGRTLRNYHVGWFRQAPGKDREFVAAVSWDDSTYYTESVKGRFTISRDNANNTVYLQMNSLKPEDTAVYYCAADRGSVPFYSDFLRGRYEYGGQGTQVTVSS
notes: as for B12
B18: RV115 (VHH)
VHH: QVQLQESGGGLVQPGGSLRLSCAVSGSMFSIDAMGWYRQDPGEERELVAAITSGGRTSYADSVKGRFTISRDNANNAVYLQMNNLKPEDTAVYYCNADAVAPFRMTYWGKGTLVTVSS
notes: also called VHH RV115; source: S. cerevisiae, purified from the culture supernatant (IMAC, Ni-NTA)
B19: RV104 (VHH)
VHH: QVQLQESGGGLVQAGGSLRLSCTASGRTNSNYFMTWFRQAPGKEREFVAIINHITGSTEYVDSVKGRFIISRDNAKNTVYLQMDSLKPEDTAVYYCASGRIYSAIPGLYDYWGQGTRVTVSS
notes: also called VHH RV104; source: S. cerevisiae, purified from the culture supernatant (IMAC, Ni-NTA)
B20: RV136 (VHH)
VHH: QVQLQESGGGLVQAGGSLRLSCAASGRTFSRNTMGWFRQAPGKEREFVAAITGGGSTYYADSLKGRFTISRDNAKNTLYLQMNSLKPEDTAIYYCAQYKSSIYFIDYYLRIGDNYDYWGQGTQVTVSS
notes: as for B12
B21: RV150 (VHH)
VHH: QVQLQESGGGLVQAGGSLRLSCAASGRTLSSYAMGWFRQAPGKEREFVGAISWSGPMLYYGDSAKGRFTISRDNAKNTVYLQMNTLKPEDTAVYYCAAANRLTAEGWQQGYNYDYWGQGTQVTVSS
notes: also called VHH RV150; source: S. cerevisiae, purified from the culture supernatant (IMAC, Ni-NTA)
B22: RV107 (VHH)
VHH: QVQLQESGGGLVQAGGSLRLSCTASGRTFDGVNMAWFRQIPGKEREFVATTLWRGNVPYYTDSVEGRFTISSDNAKNTGYLQMNSLKPEDTAVYYCAARTGSTFLSSALAQSEAVYSIWGQGTQVTVSS
notes: also called VHH RV107; source: S. cerevisiae, purified from the culture supernatant (IMAC, Ni-NTA)
B23: RV148 (VHH)
VHH: QVQLQQSGGGLVQAGDSLRVSCAASGRTFSSYVLAWFRQAPGKEREFVAVVGWTGARKEYTDSVKGRFTISRDNAKNTVYLQMNSLKPEDTAVYYCAAGRYYIADGSLYDFWGQGTQVTVSS
notes: as for B12

One experiment deals with T1, SB10-ELP2ABD-SB10 (Lama glama).
T1 construct: also called bivalent ELP-based VHH complex; copies: + +
Briefly: ELISA; […] (25 mM Tris-HCl, 2 mM EDTA, 140 mM NaCl, pH 7.6, […]. The conditions noted are these: both partners purified.
For the molecule B1, the binding result is “binds”.

Another experiment addresses T2, RVFV Gn ectodomain (RVFV-Gn_(ecto)) (Rift Valley fever virus, Clone 13, UniProt A2T080).
Experiment: not given
Settings: not given
Regarding B2, the binding result was “binds”. Same read-out and setting: in the case of B3 it was “binds”.

In the case of B4, the binding result is reported as “binds”. Same read-out and setting: in the case of B5 it was “binds”; in that of B6, “binds”.

B7: the binding result is reported as “binds”.

As for B8, the binding result was “binds”. For the molecule B9, the binding result is “binds”. As for B10, the binding result was “binds”.

Regarding B11, the binding result was “binds”.

The next experiment deals with B1. In words: ELISA; competition ELISA: antigen on Strep-Tactin microplates; competing VHH at 11.11 µg/ml, 1 hr RT, then HRP-conjugated analyte VHH, 1 hr RT; competition as percentage of blocking, above 50% counted as efficient. The conditions noted are these: both partners purified.
In the case of B12, the binding result is “binds”. For B13, the binding result is reported as “binds”. On to B14, for which the binding result is “binds”.

Take B15: the binding result is on record as “binds”. Still for that read-out and setting: under B16 stands “binds”.

Take B17: the binding result is reported as “binds”.

The target of the next experiment is RVFV-Gn head domain (Rift Valley fever virus, Clone 13, UniProt A2T080). In words: ELISA. The conditions noted are these: both partners purified.
As to B18, the binding result was “binds”. Take B19: the binding result is reported as “binds”.

In the case of B20, the binding result is listed as “binds”. Same read-out and setting: in the case of B21 it was “binds”; in that of B22, “binds”. On the same count and under the same terms, under B23 stands “binds”.

For the next experiment, the target named is T2, RVFV Gn ectodomain (RVFV-Gn_(ecto)). In words: ELISA. The conditions noted are these: both partners purified. A general note: In an ELISA, binding on a coated surface is turned into a signal by an enzyme label.
Take B18: the binding result is “binds”. Consider B19, for which the binding result is reported as “binds”. B20: the binding result is “binds”. Same read-out and setting: under B22 stands “binds”. Still for that read-out and setting: under B23 stands “binds”.

In the next experiment the target is RVFV-Gn subdomain B (Rift valley fever virus (RVFV).). Briefly: ELISA. The conditions noted are these: both partners purified.
Regarding B19, the binding result is “binds”. The same measure, in the same setting: in the case of B20 it was “binds”.

For B23, the binding result is “binds”.
